# From the nanobody polyreactivity screen of Harvey et al. (2022)
# Test: yeast display, Sf9 membrane polyspecificity reagent, FACS + sequencing; frameworks hold sequencing errors
# Procedure, shortened: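 Synthetic nanobody libraries on Saccharomyces cerevisiae BJ5465 were galactose-induced for 36–48 hours, stained 1 hour at 4 °C with 10% biotinylated, detergent-solubilized Sf9 membrane reagent and enriched on streptavidin microbeads. FACS then separated cells into low and high (top ~1%) gates by anti-HA (expression) and streptavidin (reagent binding) fluorescence. Genes were colony-PCR amplified, MiSeq 2 × 250 sequenced and CDR-length filtered. A clone's polyreactivity label is that of its gate of origin.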
row,Sequence,polyreactivity (PSR sort gate)
1,QVQLVESGGGLVQAGGSLRLSCAASGRTLWIYAMGWYRQAPGKERELVASITTRGGSTYYADSVKGRFTISRDNAKNTVYLQMNSLKPEDTAVYYCAAEGYTYYTYYPHDYWGQGTQVTVSS,high polyreactivity
2,QVQLVESGGGLVQAGGSLRLSCAASGIIFYFYAMGWYRQAPGKERELVAAISRGGSTKYADSVKGRFTISRDNAKNTVYLQMNSLKPEDTAVYYCAATRRRPSEYYYWGPGTQVTVSS,high polyreactivity
3,QVQLVETGGGLVQAGGSLRLSCAASGITFGRNTMGWYRQAPGKERELVAAIDSGANTYADSVKGRFTISRDNAKNTVYLQMNSLKPEDTAVYYCAVDGGEFSSYGYWGQATQVTVSS,low polyreactivity
4,QVQLVESGGGLVQAGGSLRLSCAASGITFLYYAMGRYRPAPGKERELVAAITGDGSTTYADSVKGRFTISRDNAKNTVYLQMNSLKPEDTAGYYCAADDQYYGDGFWGQGTQLTVSS,high polyreactivity
5,QVQLVESGGGLVQAGGSLRLSCAASGITFVHYAMGWSRQAPGKERELVAAITVGDGGTYYADSVKGRFTISRDNAKNTVYLQMNSLKPEDTAVYYCAAGFYSYSWYVKLAYGYWGQGIQVTVSS,low polyreactivity
6,QVQLVESGGGLVQAGGSLRLSCAASGSTFTTNAMGWYIQAPGKERELVATISGGSTNYADSVKGRFTISRDNAKNTVYLQMNSLKPEDTAVYYCNTDGEVTYDYWGQGTQVTVSS,low polyreactivity
7,QFQLLESGGGLVQAGSSLRLSCAASGSTFKYYTMGWYRQAPGKERELVATIRGAGTTYADSVKGRFTISRDNAKHTVYLQMNSLKPEDTAVYYCARLPRGDMDYWGQGTQVTVSS,low polyreactivity
8,QVQLVESGGGLDQAGGSLRLICAASGRTFYYAMGWYRQAPGKERYADSVKGRFTISRDNAKNTVYLQMNSLKPEDTAVYYCAAKVPEPPSLDESDYWGQGTQVTVSS,low polyreactivity
9,QVQIVESGGGIVQAGVSLRLICAASGFTFIDNTMGWYRQAPGKERELVAAISSDGRTNYADSVKGRFTISRDNAKNNVYLQKNSLKPEYTAVYYCASEDYYWYVTGDLYHTAVYYWGQGTQVTVSS,low polyreactivity
10,QVQLVESGGGLVQAGGSLRLSCAASGRIFGGYAMGWYRQAPGKERELVAAISWRGGTTYYADSVKGRFTISRDNAKNTVYLQMNSLKQEDTAVYYCNADVVRYRHWHRGDYWGQGTQVTVSS,low polyreactivity
11,QVQLVESGGGLVQAGGSLRLSCAASGSTFSPYAMGWYRQAPGKERELVADISWPGGTTYYADSVKGRFTISRDNAKNTVYLQMNSLKPEDTAVYYCAVTYWDYTFQITYEYWGQGSQVTVSS,low polyreactivity
12,QVQLVESGGGLVQAGGSLRLSCAASGSIFGLNAMGWYRQAPGKERELVARISTGSSTNYADSVKGRFTISRDHAKNSVYLQMNSLKPEDTAVYYCNADYPYYPYRENYWGQGTQVTVSS,low polyreactivity
13,QVQLVESVGGLVQAGGSLRLSCAASGTIFGWYAMGWYRQAPGKEREMVATIDASGRSTFYADTVKGRFTISRDNAKNTVYLQMNSLKPEDTAVYYFNSRYPRQYWGGYDYWGQGTQVTVSS,low polyreactivity
14,QVQLVESGGGLVQAGGSLRLSCAASGSIFQLNAMGWYRQAPGKERELVAAITWSGDSTYYADSVKGRFTISRDNAKNTVSLQMNSRKPEDTAVYYCAADVLTTPPPREFEYWGQGTQVTVSS,high polyreactivity
15,QVQLVESGVGLVQAGGSHRLSCAASGRTLWYYAIGWYRQAPGKERELVASIRRRTGSTYYAESVKGRFTISRDNAKNTVYLQLNSLKPEDTAVYYCAAKGFLRNGYWGQGTQVTVSS,high polyreactivity
16,QVQLVESGGGLVQAGGSLRLSCAASGITFYVYAMGWSRQAPGKEREFVAAISTRDGTTYAYSVKGRFTISRDNAKNTVYLQMNSLKPEDTAVYYCAAAYYYDGQQGDFDYWGQGSQVTVSS,low polyreactivity
17,QVQLVESGGGLVQAGGSLLLSCAAARIIFKYNAMGWYRQAPGKDRELVARITARGGRTNYADSVKGRFTISRDNAKHTVYLQMNSLKPEDTAVYYCAKKLRGWHTIITDYDYWGQGTQVTVSS,low polyreactivity
18,QVQLVESGGGLVQAGGSLRLSCAASGSTFGGYTMGWYRQAPGKERELVADITSSGSTNYADSLKGRFTISRDNAKNTVYLQMNSLKPEDTAVYYCAVRTYPGRFWYWGVDMDYWGQGTQVTVSS,low polyreactivity
19,QVQLVESGGGLVQAGGSLRLSCAASGRIFYANAMGWYRQAPGKERELVAGISSGGITNYADSVKGRFTISRDNAKNTVYLQMNSLKPEDTAVYYCAVESWNRWRNRNDYWGQGSQVTVSS,low polyreactivity
20,QVQLVESGGGLVQAGGSLRLSCAASGSIFEYNVMGWYRQAPGKERELVAAINSGGSTYYADSVKGRFTISRDNAKNTVYLQMNSLKPEDTAVYYCAARQRPNRYGYYYWGQGTQVTVSS,high polyreactivity
21,QVQRVESGGGLVQAGGSLRLSCAASGRIFGYNAMGWSRPAPGKERELVASISRDGDRTYYADSVKGRVTISRDNAKNTVYLQMNSLKPEDTAVDYCATRQYRYGYLYDYWAQGTQVTVSS,high polyreactivity
22,QVQLVESGGGLVQARGSLRLSCASSGSTFSRYAMGWYRQAPGKERELVAGISWSGGNTYYADSVKGRFTISRDNAKNTVYLQMNSLKPEDTAVYYCAADFLDYWGVYGWAEYEYWGQGTQVTVSS,low polyreactivity

row,Sequence,polyreactivity (PSR sort gate)
1,QVQLVESGGGLVQAGGSLRLSCAASGSIFTPYAMGWYRQAPGKERELVAAISRSGGSTYYADSVKGRFTISRDNAKNTVYLQMNSLKPEDTAVYYCAVVVYDIYGYESDYWGQGTQVTVSS,low polyreactivity
2,QVQLVESGGGLVQAGGSLRLSCAASGIIFAWNVRGWYRQAPGKERELVAAITQSGGGTYYADSVKGRFTISRDNAKNTVYLLMYSLKPEDTGFYYCAAVGYQFYRYVWVDEFDSWGQGTQVTVSS,low polyreactivity
3,QVHLVESGGGLVQAGGSLRLSCAASGSTFRSNAMGWYRQAPGKERELVASITSRGGSTYYADSVKGRFTISRDNAKNTVYLQMNSLKPEDTAVYYCATARSYLTYSYHYDYWGQGTQVTVSS,low polyreactivity
4,QVQLVESGGGLVQAGGSLRLSCAATGRTLGGNAMGWYRLAPGKEREFVARISTRGVRTYYAYSVKGRFTISRDNAKNTVDLQLNSLNPEDTAVYYCAKQVSYGHIGSYPDRDSWGQGTQVTVSS,low polyreactivity
5,QVQLVESGGGLVQAGGSLRLSCAASGSIFNAYAMGWYRQAPGKERELVAAISKRTSYADSVKGRFTISRDNAKNTVYLQMNSLKPEDTAVYYCANEVDEPDGYEYDYWGQGTQVTVSS,low polyreactivity
6,QVQLVESGGGLVQAGGSLRLSCAASGSTFILNAMGWYRQAPGKERELVATISSSDTSTYYADSVKGRFTISRDNAKNTVYLLMNSLKPDDTAVYFCNADYYTTSYLQRVYHYGVEYDYWGQGTQVTLSS,low polyreactivity
7,QVQLVESGGGLVQAGGSLRLSCAASGRIFWGNAMGWYRQAPGKERELVAAITRRGGTTFYADSVKGRFTISRDNAKNTVYLQMNSLKPEDTAVYYCAARRYGQYDGYDSWGQGTQVTVSS,high polyreactivity
8,QVQLVESGGGLVQAGGSLRLSCAASGFTKAYAMGWSRQAPGKERELVAVISDRAGSTYYADSVKGRFTISRDNPKNTVYLQMNSLKPEDTAVYYCAADGIGYSYHGRPYIYEYWGQGTQVTVSS,low polyreactivity
9,QVQLVESGGGLVQAGGSLRLSCAASGSIFASNAMGWYRQAPGKERELVAAINSGGNTYEDSVKGRFTISRDNAKNTVYLQMNSLKPEDTAVYYCSVVWNWWSGLSPGYPDFDYWGQGTQVTVSS,low polyreactivity
10,QVQLVESGGGLVQAGGSLRLSCAASGSIFVYNAMGWYRQAPGKERELVAGITFIGGSTYYADSVKGRFTISRDTAKNTVYLPMNSLKPEDTAVYYRNADGAPGIFYGYDSWGQGTQVTVSS,low polyreactivity
11,QVQLVESGGGLDQAGGSLRLTCADSGSIFIRNAMGWYRHAPGKESELVAAISGSGSSTYYADSVKGRFTISRDNAKNTVYLQMNSLKPEDTAVYYCNTDRTHSYQYGGYDYWGQGTQVTVSS,low polyreactivity
12,QVQLVESGGGLVQAGGSLRLSCAASGSTFASNAMGWYRQAPGKERELVAAISGSGGRTYYADSVKGRFTISRDNAKNTVYLQMNSLKQEDTAVYYCAADWVRRYNYWGQGTQVTVSS,high polyreactivity
13,QVQLVESGGGLVQEGGSLRLSCAASGILVYNAMGWYRQAPGTERELVAAISARGGRTYYADSVKGRFTISRDNAQNTDSLQMNSLKPEDTAVYYCASRSSKSRTYDYWGQGTQVTVSS,high polyreactivity
14,QVQLQESGGGLVQVGGSQRLSCAASGNIFYNYAMGWYRHAQGKEREFDATINHGTSINYADSVKGRFTISRDNAKNTVYLQMNSLKPEDTAVYYCAARVVRYGYKYYYWGQGTQVTLSS,low polyreactivity
15,QVQLVESGGGLVQAGGSLRLSCAATGRTFTVNPMGWYIQAPGKERELVAAITGSGGSTYYADSVKGRFTISRDNGKNTVYLQMNSLKPEDTAGYYCAADVNWFRWWSGSVELDYWGQGTQVTVTS,low polyreactivity
16,QVQLVESGGGLVQAGGSLRLSCAASGSTFVRNVMGWYRQAPGKERELDAAITRSGDTTYYADSVKGRFTISRDNAKNTVYLQMNSLKPEDTAVYYCAKRTFVRRGSIYPIDDYWGQGTQVTVSS,low polyreactivity
17,QVQLVESGGGLVQAGGSLRISCAASGGIFQRYDMGWYRKATGKERELVAAITRSGGSTYYADSVKGRFTISRDNAKNTVYLQMNSLKPEDTAVYYCAARTYGCYEYWGQGTQVTVSS,high polyreactivity
18,QVQLVESGGGLVQAGGSLRLSCAASGSILTVYAMGWYRQAHGKERELVARIRSGDRTYYADSVKGRFTISRDNAKNTVYLQMNSLKPEDTAVYYCAAGSQRRYYHTNWDSFNYWGQGTQVTVSS,low polyreactivity
19,QVQLVESGGGLVQAGGSLRLSCAASGSSFRRNAMGWYRQAPGKERELVAAITRGGGSTYYADSVKGRFTISRDNAKNTVYLQMNSLKPEDNAVYYCAAQISATRETMDYWGQGTQVTVSS,high polyreactivity
20,QVQLVESGGGLVQAGGSLRLRCAASGSTFYHNAMGWYRQAPGKERELVAAISTRGTSTYYADSVKGRFTISRDKAKNTVYLQMNSLKPEDTAVYYCNAVYKLRARYDYWGQGTQVTVSS,high polyreactivity
21,QVQLVESGGALVQAGGSLRLSCAASGSIFFSYAMGWYRQAPGKERELVAAISTSGGNTYYADSVKGRFTISRDNAKHTVYLQMNSLKPEDTAVYYCNDRGSYPPYRSYGYWGQGTQVTVSS,low polyreactivity
